Source: patent US20120058100A1, “MODULATION OF DRUG RELEASE RATE FROM ELECTROSPUN FIBERS” (priority 2006, published 2012)

Test: Release of FITC-BSA from emulsion-electrospun PU, PLA and co-spun fibers in PBS
Format: physicochemical
Protocol: Polymers were dissolved in organic solvent and emulsified with a H2O/Poly(vinyl alcohol) mixture with the molecule to be released dispersed in the aqueous phase. Polyurethane (PU) was dissolved at 6 wt % in a mixture of chloroform and tetrahydrofuran. PLA was dissolved at 2 wt % in chloroform. Drugs were loaded into the PVA/Water mixture with aqueous volume fractions ranging from 10-20 vol %. Emulsions were loaded into plastic syringe fitted with a blunt tip 18-gauge needle and placed into a syringe pump.
Circular discs were punched out from the aluminum foil and polymer fibers removed from Al-backing. Samples placed in centrifuge tubes individual glass vials with PBS. Samples degraded in at room temperature (20° C.) on a rotisserie. The buffer was sampled at given intervals. Depending on release molecule, different spectrophotometric techniques were used to measure release profiles.
The concentration was determined fluorometrically by measuring […] at λ=495 nm. Samples were placed in 10 ml of PBS and 200 μl of buffer was used to run the assay and not replaced (total amount withdrawn from tube was less than 40% of total volume). Average concentration plotted over 360 hour time course (n=3).

For “FITC-BSA: fluorescein isothiocyanate conjugated albumin, a model protein”, the “duration over which release can be achieved” value (PU and PLA fibers) was no less than 15 days, the “release from meshes of co-spun PLA and PU fibers relative to pure PLA or PU meshes” value (co-spun PLA and PU fibers) was “intermediate manner” and the “release rate relative to doxycycline” value (electrospun fibers) was “much slower release rates”.
